Test results from publication PMC6283856 (2018).

B1: ubiquitin-specific peptidase 17 (USP17), wild type [not stated] / TNFR-associated factor 2 (TRAF2) [not stated] (parent complex)
chain 1: MEDDSLYLGGEWQFNHFSKLTSSRPDAAFAEIQRTSLPEKSPLSSEARVDLCDDLAPVARQLAPRKKLPLSSRRPAAVGAGLQNMGNTCYENASLQCLTYTPPLANYMLSREHSQTCQRPKCCMLCTMQAHITWALHSPGHVIQPSQALAAGFHRGKQEDAHEFLMFTVDAMKKACLPGHKQVDHHSKDTTLIHQIFGGCWRSQIKCLHCHGISDTFDPYLDIALDIQAAQSVKQALEQLVKPEELNGENAYHCGLCLQRAPASKTLTLHTSAKVLILVLKRFSDVTGNKLAKNVQYPECLDMQPYMSQQNTGPLVYVLYAVLVHAGWSCHDGHYFSYVKAQEGQWYKMDDAKVTACSITSVLSQQAYVLFYIQKSEWERHSESVSRGREPRALGAEDTDRRATQGELKRDHPCLQAPELDERLVERATQESTLDHWKFPQEQNKTKPEFNVRKVEGTLPPNVLVIHQSKYKCGMKNHHPEQQSSLLNLSSTTRTDQESVNTGTLASLQGRTRRSKGKNKHSKRALLVCQ
chain 2: MAAASVTPPGSLELLQPGFSKTLLGTKLEAKYLCSACRNVLRRPFQAQCGHRYCSFCLASILSSGPQNCAACVHEGIYEEGISILESSSAFPDNAARREVESLPAVCPSDGCTWKGTLKEYESCHEGRCPLMLTECPACKGLVRLGEKERHLEHECPERSLSCRHCRAPCCGADVKAHHEVCPKFPLTCDGCGKKKIPREKFQDHVKTCGKCRVPCRFHAIGCLETVEGEKQQEHEVQWLREHLAMLLSSVLEAKPLLGDQSHAGSELLQRCESLEKKTATFENIVCVLNREVERVAMTAEACSRQHRLDQDKIEALSSKVQQLERSIGLKDLAMADLEQKVLEMEASTYDGVFIWKISDFARKRQEAVAGRIPAIFSPAFYTSRYGYKMCLRIYLNGDGTGRGTHLSLFFVVMKGPNDALLRWPFNQKVTLMLLDQNNREHVIDAFRPDVTSSSFQRPVNDMNIASGCPLFCPVSKMEAKNSYVRDDAIFIKAIVDLTGL
B2: ubiquitin-specific peptidase 17 (USP17), wild type [not stated] / TNFR-associated factor 3 (TRAF3) [not stated] (parent complex)
chain 1: B1 chain 1
chain 2: MESSKKMDSPGALQTNPPLKLHTDRSAGTPVFVPEQGGYKEKFVKTVEDKYKCEKCHLVLCSPKQTECGHRFCESCMAALLSSSSPKCTACQESIVKDKVFKDNCCKREILALQIYCRNESRGCAEQLMLGHLLVHLKNDCHFEELPCVRPDCKEKVLRKDLRDHVEKACKYREATCSHCKSQVPMIALQKHEDTDCPCVVVSCPHKCSVQTLLRSELSAHLSECVNAPSTCSFKRYGCVFQGTNQQIKAHEASSAVQHVNLLKEWSNSLEKKVSLLQNESVEKNKSIQSLHNQICSFEIEIERQKEMLRNNESKILHLQRVIDSQAEKLKELDKEIRPFRQNWEEADSMKSSVESLQNRVTELESVDKSAGQVARNTGLLESQLSRHDQMLSVHDIRLADMDLRFQVLETASYNGVLIWKIRDYKRRKQEAVMGKTLSLYSQPFYTGYFGYKMCARVYLNGDGMGKGTHLSLFFVIMRGEYDALLPWPFKQKVTLMLMDQGSSRRHLGDAFKPDPNSSSFKKPTGEMNIASGCPVFVAQTVLENGTYIKDDTIFIKVIVDTSDLPDP

Variants of: B1
Experiment: co-immunoprecipitation (IP: Myc, IB: Flag) with band quantification; coexpressed in HEK293 cells; parent: 100; read off a plot

In order of rising percent of parent:
1. chain 1 MEDDSLYLGGEWQFNHFSKLTSSRPDAAFAEIQRTSLPEKSPLSSEARVDLCDDLAPVARQLAPRKKLPLSSRRPAAVGAGLQNMGNTCYENASLQCLTYTPPLANYMLSREHSQTCQRPKCCMLCTMQAHITWALHSPGHVIQPSQALAAGFHRGKQEDAHEFLMFTVDAMKKACLPGHKQVDHHSKDTTLIHQIFGGCWRSQIKCLHCHGISDTFDPYLDIALDIQAAQSVKQALEQLVKPEELNGENAYHCGLCLQRAPASKTLTLHTSAKVLILVLKRFSDVTGNKLAKNVQYPECLDMQPYMSQQNTGPLVYVLYAVLVHAGWSCHDGHYFSYVKAQEGQWYKMDDAKVTACSITSVLSQQAYVLFYIQKSEWERHSESVSRGREPRALGAEDTDRRATQGELKRDHPCLQAPELDERLVERATQASTLDHWKFPQEQNKTKPEFNVRKVEGTLPPNVLVIHQSKYKCGMKNHHPEQQSSLLNLSSTTRTDQESVNTGTLASLQGRTRRSKGKNKHSKRALLVCQ [chain 1 E431A]  ~29%
2. chain 1 MEDDSLYLGGEWQFNHFSKLTSSRPDAAFAEIQRTSLPEKSPLSSEARVDLCDDLAPVARQLAPRKKLPLSSRRPAAVGAGLQNMGNTCYENASLQCLTYTPPLANYMLSREHSQTCQRPKCCMLCTMQAHITWALHSPGHVIQPSQALAAGFHRGKQEDAHEFLMFTVDAMKKACLPGHKQVDHHSKDTTLIHQIFGGCWRSQIKCLHCHGISDTFDPYLDIALDIQAAQSVKQALEQLVKPEELNGENAYHCGLCLQRAPASKTLTLHTSAKVLILVLKRFSDVTGNKLAKNVQYPECLDMQPYMSQQNTGPLVYVLYAVLVHAGWSCHDGHYFSYVKAQEGQWYKMDDAKVTACSITSVLSQQAYVLFYIQKSEWERHSESVSRGREPRALGAEDTDRRATQGELKRDHPCLQAPELDERLVERATAESTLDHWKFPQEQNKTKPEFNVRKVEGTLPPNVLVIHQSKYKCGMKNHHPEQQSSLLNLSSTTRTDQESVNTGTLASLQGRTRRSKGKNKHSKRALLVCQ [chain 1 Q430A]  ~33%
3. chain 1 MEDDSLYLGGEWQFNHFSKLTSSRPDAAFAEIQRTSLPEKSPLSSEARVDLCDDLAPVARQLAPRKKLPLSSRRPAAVGAGLQNMGNTCYENASLQCLTYTPPLANYMLSREHSQTCQRPKCCMLCTMQAHITWALHSPGHVIQPSQALAAGFHRGKQEDAHEFLMFTVDAMKKACLPGHKQVDHHSKDTTLIHQIFGGCWRSQIKCLHCHGISDTFDPYLDIALDIQAAQSVKQALEQLVKPEELNGENAYHCGLCLQRAPASKTLTLHTSAKVLILVLKRFSDVTGNKLAKNVQYPECLDMQPYMSQQNTGPLVYVLYAVLVHAGWSCHDGHYFSYVKAQEGQWYKMDDAKVTACSITSVLSQQAYVLFYIQKSEWERHSESVSRGREPRALGAEDTDRRATQGELKRDHPCLQAPELDERLVERATQESTLDHWKFPQEQNKTKPEFNVRKVEGTLPPNVLVIHQSKYKCGMKNHHPERQSSLLNLSSTTRTDQESVNTGTLASLQGRTRRSKGKNKHSKRALLVCQ [chain 1 Q482R]  ~37%
4. chain 1 MEDDSLYLGGEWQFNHFSKLTSSRPDAAFAEIQRTSLPEKSPLSSEARVDLCDDLAPVARQLAPRKKLPLSSRRPAAVGAGLQNMGNTCYENASLQCLTYTPPLANYMLSREHSQTCQRPKCCMLCTMQAHITWALHSPGHVIQPSQALAAGFHRGKQEDAHEFLMFTVDAMKKACLPGHKQVDHHSKDTTLIHQIFGGCWRSQIKCLHCHGISDTFDPYLDIALDIQAAQSVKQALEQLVKPEELNGENAYHCGLCLQRAPASKTLTLHTSAKVLILVLKRFSDVTGNKLAKNVQYPECLDMQPYMSQQNTGPLVYVLYAVLVHAGWSCHDGHYFSYVKAQEGQWYKMDDAKVTACSITSVLSQQAYVLFYIQKSEWERHSESVSRGREPRALGAEDTDRRATQGELKRDHPCLQAPELDERLVERATQESTLDHWKFPQEQNKTKPEFNVRKVEGTLPPNVLVIHQSKYKCGMKNHHPEQQLSLLNLSSTTRTDQESVNTGTLASLQGRTRRSKGKNKHSKRALLVCQ [chain 1 S484L]  ~40%
5. chain 1 MEDDSLYLGGEWQFNHFSKLTSSRPDAAFAEIQRTSLPEKSPLSSEARVDLCDDLAPVARQLAPRKKLPLSSRRPAAVGAGLQNMGNTCYENASLQCLTYTPPLANYMLSREHSQTCQRPKCCMLCTMQAHITWALHSPGHVIQPSQALAAGFHRGKQEDAHEFLMFTVDAMKKACLPGHKQVDHHSKDTTLIHQIFGGCWRSQIKCLHCHGISDTFDPYLDIALDIQAAQSVKQALEQLVKPEELNGENAYHCGLCLQRAPASKTLTLHTSAKVLILVLKRFSDVTGNKLAKNVQYPECLDMQPYMSQQNTGPLVYVLYAVLVHAGWSCHDGHYFSYVKAQEGQWYKMDDAKVTACSITSVLSQQAYVLFYIQKSEWERHSESVSRGREPRALGAEDTDRRATQGELKRDHPCLQAPELDERLVERATQESTLDHWKFPQEQNKTKPEFNVRKVEGTLPPNVLVIHQSKYKCGMKNHHLEQQSSLLNLSSTTRTDQESVNTGTLASLQGRTRRSKGKNKHSKRALLVCQ [chain 1 P480L]  ~68%
6. chain 1 MEDDSLYLGGEWQFNHFSKLTSSRPDAAFAEIQRTSLPEKSPLSSEARVDLCDDLAPVARQLAPRKKLPLSSRRPAAVGAGLQNMGNTCYENASLQCLTYTPPLANYMLSREHSQTCQRPKCCMLCTMQAHITWALHSPGHVIQPSQALAAGFHRGKQEDAHEFLMFTVDAMKKACLPGHKQVDHHSKDTTLIHQIFGGCWRSQIKCLHCHGISDTFDPYLDIALDIQAAQSVKQALEQLVKPEELNGENAYHCGLCLQRAPASKTLTLHTSAKVLILVLKRFSDVTGNKLAKNVQYPECLDMQPYMSQQNTGPLVYVLYAVLVHAGWSCHDGHYFSYVKAQEGQWYKMDDAKVTACSITSVLSQQAYVLFYIQKSEWERHSESVSRGREPRALGAEDTDRRATQGELKRDHPCLQAPELDERLVERVTQESTLDHWKFPQEQNKTKPEFNVRKVEGTLPPNVLVIHQSKYKCGMKNHHPEQQSSLLNLSSTTRTDQESVNTGTLASLQGRTRRSKGKNKHSKRALLVCQ [chain 1 A428V]  ~79%

Variants of: B2
Experiment: as above

In order of falling percent of parent:
1. chain 1 MEDDSLYLGGEWQFNHFSKLTSSRPDAAFAEIQRTSLPEKSPLSSEARVDLCDDLAPVARQLAPRKKLPLSSRRPAAVGAGLQNMGNTCYENASLQCLTYTPPLANYMLSREHSQTCQRPKCCMLCTMQAHITWALHSPGHVIQPSQALAAGFHRGKQEDAHEFLMFTVDAMKKACLPGHKQVDHHSKDTTLIHQIFGGCWRSQIKCLHCHGISDTFDPYLDIALDIQAAQSVKQALEQLVKPEELNGENAYHCGLCLQRAPASKTLTLHTSAKVLILVLKRFSDVTGNKLAKNVQYPECLDMQPYMSQQNTGPLVYVLYAVLVHAGWSCHDGHYFSYVKAQEGQWYKMDDAKVTACSITSVLSQQAYVLFYIQKSEWERHSESVSRGREPRALGAEDTDRRATQGELKRDHPCLQAPELDERLVERATQESTLDHWKFPQEQNKTKPEFNVRKVEGTLPPNVLVIHQSKYKCGMKNHHLEQQSSLLNLSSTTRTDQESVNTGTLASLQGRTRRSKGKNKHSKRALLVCQ [chain 1 P480L]  ~68%
2. chain 1 MEDDSLYLGGEWQFNHFSKLTSSRPDAAFAEIQRTSLPEKSPLSSEARVDLCDDLAPVARQLAPRKKLPLSSRRPAAVGAGLQNMGNTCYENASLQCLTYTPPLANYMLSREHSQTCQRPKCCMLCTMQAHITWALHSPGHVIQPSQALAAGFHRGKQEDAHEFLMFTVDAMKKACLPGHKQVDHHSKDTTLIHQIFGGCWRSQIKCLHCHGISDTFDPYLDIALDIQAAQSVKQALEQLVKPEELNGENAYHCGLCLQRAPASKTLTLHTSAKVLILVLKRFSDVTGNKLAKNVQYPECLDMQPYMSQQNTGPLVYVLYAVLVHAGWSCHDGHYFSYVKAQEGQWYKMDDAKVTACSITSVLSQQAYVLFYIQKSEWERHSESVSRGREPRALGAEDTDRRATQGELKRDHPCLQAPELDERLVERATQESTLDHWKFPQEQNKTKPEFNVRKVEGTLPPNVLVIHQSKYKCGMKNHHPEQQLSLLNLSSTTRTDQESVNTGTLASLQGRTRRSKGKNKHSKRALLVCQ [chain 1 S484L]  ~38%
3. chain 1 MEDDSLYLGGEWQFNHFSKLTSSRPDAAFAEIQRTSLPEKSPLSSEARVDLCDDLAPVARQLAPRKKLPLSSRRPAAVGAGLQNMGNTCYENASLQCLTYTPPLANYMLSREHSQTCQRPKCCMLCTMQAHITWALHSPGHVIQPSQALAAGFHRGKQEDAHEFLMFTVDAMKKACLPGHKQVDHHSKDTTLIHQIFGGCWRSQIKCLHCHGISDTFDPYLDIALDIQAAQSVKQALEQLVKPEELNGENAYHCGLCLQRAPASKTLTLHTSAKVLILVLKRFSDVTGNKLAKNVQYPECLDMQPYMSQQNTGPLVYVLYAVLVHAGWSCHDGHYFSYVKAQEGQWYKMDDAKVTACSITSVLSQQAYVLFYIQKSEWERHSESVSRGREPRALGAEDTDRRATQGELKRDHPCLQAPELDERLVERATQESTLDHWKFPQEQNKTKPEFNVRKVEGTLPPNVLVIHQSKYKCGMKNHHPERQSSLLNLSSTTRTDQESVNTGTLASLQGRTRRSKGKNKHSKRALLVCQ [chain 1 Q482R]  ~30%
